# Data reported in publication PMC9482650, “Quantitative fragmentomics allow affinity mapping of interactomes” (Nature Communications, 2022).
# T1: MPDZ_5, O75970
# T1 sequence (O75970 695-796, limits assumed, looked up): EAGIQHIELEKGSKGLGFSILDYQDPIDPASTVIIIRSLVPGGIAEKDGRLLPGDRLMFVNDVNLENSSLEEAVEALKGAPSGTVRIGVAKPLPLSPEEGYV
# T2: RHPN1, Q8TCX5
# T2 sequence (Q8TCX5 508-602, limits assumed, looked up): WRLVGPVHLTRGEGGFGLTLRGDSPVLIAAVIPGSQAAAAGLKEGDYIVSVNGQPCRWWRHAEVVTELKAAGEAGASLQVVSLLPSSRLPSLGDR
# T3: DFNB31_1, Q9P202
# T3 sequence (Q9P202 135-233, limits assumed, looked up): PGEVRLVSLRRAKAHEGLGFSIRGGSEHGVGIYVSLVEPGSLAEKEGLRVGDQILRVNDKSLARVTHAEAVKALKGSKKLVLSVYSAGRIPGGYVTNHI
# T4: DFNB31_3, Q9P202
# T4 sequence (Q9P202 811-907, limits assumed, looked up): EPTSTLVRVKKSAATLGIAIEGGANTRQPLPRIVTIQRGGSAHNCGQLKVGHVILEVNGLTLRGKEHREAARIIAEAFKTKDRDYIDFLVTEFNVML
# T5: APBA2_1, Q99767
# T5 sequence (Q99767 563-664, limits assumed, looked up): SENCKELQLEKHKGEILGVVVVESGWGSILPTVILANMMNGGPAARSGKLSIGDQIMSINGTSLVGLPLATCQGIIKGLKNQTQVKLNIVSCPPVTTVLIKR
# T6: PARD3B_1, Q8TEW8
# T6 sequence (Q8TEW8 196-299, limits assumed, looked up): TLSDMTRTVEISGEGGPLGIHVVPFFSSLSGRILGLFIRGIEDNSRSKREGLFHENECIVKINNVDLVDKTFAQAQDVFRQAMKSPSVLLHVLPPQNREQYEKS
# T7: SHANK1, Q9Y566
# T7 sequence (Q9Y566 658-767, limits assumed, looked up): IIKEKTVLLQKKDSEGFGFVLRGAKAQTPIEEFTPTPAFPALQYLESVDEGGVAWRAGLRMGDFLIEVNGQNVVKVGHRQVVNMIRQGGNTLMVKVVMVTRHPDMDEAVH
# T8: FRMPD1, Q5SYB0
# T8 sequence (Q5SYB0 52-145, limits assumed, looked up): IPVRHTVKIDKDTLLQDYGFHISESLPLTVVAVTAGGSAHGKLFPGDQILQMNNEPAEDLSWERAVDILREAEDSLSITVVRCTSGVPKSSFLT
# T9: TJP3_3, O95049
# T9 sequence (O95049 375-456, limits assumed, looked up): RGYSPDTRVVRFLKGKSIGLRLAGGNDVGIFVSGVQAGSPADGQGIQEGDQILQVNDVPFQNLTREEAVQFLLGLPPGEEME
# Legend:
# Assay in all cases: holdup assay
# Set-up in all cases: key: below the threshold = too weak to quantify, mostly under pKd 3.1 to 4
# Settings in all cases: plain residues with an end cap or a label only (N-terminal biotin on a linker: ttds)
# MAST2, Q6P0Q8 = molecular target: MAST2, Q6P0Q8
# MPDZ_5, O75970 = molecular target: T1, MPDZ_5, O75970
# GRIP2_6, Q9C0E4 = molecular target: GRIP2_6, Q9C0E4
# Inadl_1, Q8NI35 = molecular target: Inadl_1, Q8NI35
# HTRA1, Q92743 = molecular target: HTRA1, Q92743
# GORASP1, Q9BQQ3 = molecular target: GORASP1, Q9BQQ3
# LNX1_3, Q8TBB1 = molecular target: LNX1_3, Q8TBB1
# GRIP2_4, Q9C0E4 = molecular target: GRIP2_4, Q9C0E4
# LAP2, Q96RT1 = molecular target: LAP2, Q96RT1
# GRIP2_3, Q9C0E4 = molecular target: GRIP2_3, Q9C0E4
# RHPN1, Q8TCX5 = molecular target: T2, RHPN1, Q8TCX5
# DFNB31_1, Q9P202 = molecular target: T3, DFNB31_1, Q9P202
# DFNB31_3, Q9P202 = molecular target: T4, DFNB31_3, Q9P202
# DLG5_1, Q8TDM6 = molecular target: DLG5_1, Q8TDM6
# GRIP2_5, Q9C0E4 = molecular target: GRIP2_5, Q9C0E4
# SCRIB_1, Q14160 = molecular target: SCRIB_1, Q14160
# APBA2_1, Q99767 = molecular target: T5, APBA2_1, Q99767
# NHERF4_4, Q86UT5 = molecular target: NHERF4_4, Q86UT5
# PARD3B_1, Q8TEW8 = molecular target: T6, PARD3B_1, Q8TEW8
# SHANK1, Q9Y566 = molecular target: T7, SHANK1, Q9Y566
# FRMPD1, Q5SYB0 = molecular target: T8, FRMPD1, Q5SYB0
# DLG2_2, Q15700 = molecular target: DLG2_2, Q15700
# GOPC, Q9HD26 = molecular target: GOPC, Q9HD26
# NHERF4_1, Q86UT5-2 = molecular target: NHERF4_1, Q86UT5-2
# MAGI1_1, Q96QZ7 = molecular target: MAGI1_1, Q96QZ7
# TJP3_3, O95049 = molecular target: T9, TJP3_3, O95049
# DLG2_3, Q15700 = molecular target: DLG2_3, Q15700
# Inadl_6, Q8NI35 = molecular target: Inadl_6, Q8NI35
# Sequence of Inadl_6, Q8NI35 (Q8NI35 1058-1167): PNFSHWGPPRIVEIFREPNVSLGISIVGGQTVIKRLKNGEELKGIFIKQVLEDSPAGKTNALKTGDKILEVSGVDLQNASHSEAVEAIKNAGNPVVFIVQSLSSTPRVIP
# Sequence of HTRA1, Q92743 (Q92743 360-477): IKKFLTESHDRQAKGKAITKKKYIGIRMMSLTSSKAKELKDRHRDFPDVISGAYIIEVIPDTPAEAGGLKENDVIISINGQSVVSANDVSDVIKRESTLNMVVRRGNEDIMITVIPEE
# Sequence of GRIP2_3, Q9C0E4 (Q9C0E4 238-339): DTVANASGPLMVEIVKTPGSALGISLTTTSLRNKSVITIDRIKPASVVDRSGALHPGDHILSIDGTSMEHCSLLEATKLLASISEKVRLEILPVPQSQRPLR
# Sequence of MAST2, Q6P0Q8 (Q6P0Q8 1099-1202): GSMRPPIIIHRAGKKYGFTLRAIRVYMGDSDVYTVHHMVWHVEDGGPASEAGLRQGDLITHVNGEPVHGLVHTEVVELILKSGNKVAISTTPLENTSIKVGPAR
# Sequence of DLG5_1, Q8TDM6 (Q8TDM6 617-713): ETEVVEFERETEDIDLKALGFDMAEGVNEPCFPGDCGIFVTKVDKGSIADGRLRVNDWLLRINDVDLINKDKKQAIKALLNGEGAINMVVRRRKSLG
# Sequence of GRIP2_5, Q9C0E4 (Q9C0E4 544-642): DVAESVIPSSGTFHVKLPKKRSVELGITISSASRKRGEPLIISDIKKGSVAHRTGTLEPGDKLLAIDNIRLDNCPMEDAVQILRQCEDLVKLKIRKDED
# Sequence of NHERF4_4, Q86UT5 (Q86UT5 464-550): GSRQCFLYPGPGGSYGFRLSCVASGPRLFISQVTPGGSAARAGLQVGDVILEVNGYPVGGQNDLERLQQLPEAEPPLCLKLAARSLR
# Sequence of Inadl_1, Q8NI35 (Q8NI35 113-229): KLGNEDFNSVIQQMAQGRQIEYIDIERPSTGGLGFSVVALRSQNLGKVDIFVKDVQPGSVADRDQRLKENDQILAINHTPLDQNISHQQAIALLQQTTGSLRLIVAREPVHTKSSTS
# Sequence of NHERF4_1, Q86UT5-2 (Q86UT5 other isoform, or with tags, fused parts or gaps): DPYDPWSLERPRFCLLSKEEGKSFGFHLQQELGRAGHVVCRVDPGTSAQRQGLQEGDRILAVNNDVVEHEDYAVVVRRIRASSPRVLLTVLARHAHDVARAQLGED
# Sequence of GRIP2_6, Q9C0E4 (Q9C0E4 648-740): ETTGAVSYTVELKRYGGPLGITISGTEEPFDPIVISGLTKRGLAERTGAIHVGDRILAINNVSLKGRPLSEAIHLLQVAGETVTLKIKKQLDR
# Sequence of SCRIB_1, Q14160 (Q14160 718-814): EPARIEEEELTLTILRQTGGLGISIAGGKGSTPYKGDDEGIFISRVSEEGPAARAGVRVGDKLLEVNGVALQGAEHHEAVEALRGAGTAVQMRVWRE
# Sequence of LNX1_3, Q8TBB1 (Q8TBB1 500-596): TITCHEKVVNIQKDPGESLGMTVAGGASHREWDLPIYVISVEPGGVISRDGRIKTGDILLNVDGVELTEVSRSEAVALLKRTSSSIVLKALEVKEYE
# Sequence of GRIP2_4, Q9C0E4 (Q9C0E4 446-548): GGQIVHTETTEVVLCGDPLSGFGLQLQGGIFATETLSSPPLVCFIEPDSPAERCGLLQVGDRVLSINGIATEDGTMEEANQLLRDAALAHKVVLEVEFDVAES
# Sequence of GORASP1, Q9BQQ3 (Q9BQQ3 1-208): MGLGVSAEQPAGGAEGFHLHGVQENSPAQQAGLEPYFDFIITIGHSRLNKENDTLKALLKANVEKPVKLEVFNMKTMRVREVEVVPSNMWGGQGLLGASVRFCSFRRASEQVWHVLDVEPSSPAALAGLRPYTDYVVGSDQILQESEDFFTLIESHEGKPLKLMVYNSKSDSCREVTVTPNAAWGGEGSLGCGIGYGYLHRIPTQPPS
# Sequence of MAGI1_1, Q96QZ7 (Q96QZ7 1-106): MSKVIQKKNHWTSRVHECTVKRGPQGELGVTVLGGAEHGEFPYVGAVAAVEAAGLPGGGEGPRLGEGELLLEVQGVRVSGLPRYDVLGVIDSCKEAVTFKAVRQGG
# Sequence of LAP2, Q96RT1 (Q96RT1 other isoform, or with tags, fused parts or gaps): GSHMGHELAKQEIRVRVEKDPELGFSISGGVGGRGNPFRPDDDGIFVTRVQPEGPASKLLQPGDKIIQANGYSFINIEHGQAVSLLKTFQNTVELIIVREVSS
Binder,"pKd (MAST2, Q6P0Q8)","pKd (MPDZ_5, O75970)","pKd (GRIP2_6, Q9C0E4)","pKd (Inadl_1, Q8NI35)","pKd (HTRA1, Q92743)","pKd (GORASP1, Q9BQQ3)","pKd (LNX1_3, Q8TBB1)","pKd (GRIP2_4, Q9C0E4)","pKd (LAP2, Q96RT1)","pKd (GRIP2_3, Q9C0E4)","pKd (RHPN1, Q8TCX5)","pKd (DFNB31_1, Q9P202)","pKd (DFNB31_3, Q9P202)","pKd (DLG5_1, Q8TDM6)","pKd (GRIP2_5, Q9C0E4)","pKd (SCRIB_1, Q14160)","pKd (APBA2_1, Q99767)","pKd (NHERF4_4, Q86UT5)","pKd (PARD3B_1, Q8TEW8)","pKd (SHANK1, Q9Y566)",further results
"QSARYRDTEL [TJP2, Q9UDY2]",5.7,below the threshold,below the threshold,below the threshold,below the threshold,below the threshold,below the threshold,below the threshold,below the threshold,below the threshold,4.03,3.57,below the threshold,below the threshold,below the threshold,4.46,below the threshold,3.47,below the threshold,3.74,"pKd (FRMPD1, Q5SYB0): below the threshold; pKd (DLG2_2, Q15700): 3.61; pKd (GOPC, Q9HD26): below the threshold; pKd (NHERF4_1, Q86UT5-2): 3.73; pKd (MAGI1_1, Q96QZ7): 3.55; pKd (TJP3_3, O95049): 3.55; pKd (DLG2_3, Q15700): 3.8; pKd (Inadl_6, Q8NI35): below the threshold"
"GQDSREETQL [KCNT2, Q6UVM3]",5.91,below the threshold,below the threshold,below the threshold,below the threshold,3.75,below the threshold,below the threshold,3.75,below the threshold,5,3.82,below the threshold,below the threshold,below the threshold,4.57,below the threshold,below the threshold,below the threshold,4.67,"pKd (FRMPD1, Q5SYB0): below the threshold; pKd (DLG2_2, Q15700): 4.47; pKd (GOPC, Q9HD26): 4.01; pKd (NHERF4_1, Q86UT5-2): 4.06; pKd (MAGI1_1, Q96QZ7): below the threshold; pKd (TJP3_3, O95049): below the threshold; pKd (DLG2_3, Q15700): below the threshold; pKd (Inadl_6, Q8NI35): 4.19"
